{"source": "patent US10434147B2", "about": "“Treatment type 2 diabetes mellitus patients” (Sanofi-Aventis Deutschland GmbH, priority 2015, dated 2019)", "tested_on": "Patients with Type 2 Diabetes Insufficiently Controlled with Insulin Glargine with or without Metformin", "test": "Treatment-emergent adverse events, 26-week study", "format": "in vivo, human", "text": "FIG. 6—Graphical study design. ^1 Insulin glargine should be injected subcutaneously once daily at dinner or breakfast time (according to patient's/investigators' preference). […] Meal used for insulin glulisine dosing should remain the same throughout the 26-week treatment period. ^4 Injection of insulin glulisine prior to breakfast, lunch and dinner.\nCo-primary endpoints at 26 weeks were (1) non-inferiority (95% CI upper bound <0.4%) in HbA1c reduction with LIXI vs GLU-1 and (2) for LIXI vs GLU-3, either non-inferiority in HbA1c reduction (2a) OR superiority (one-sided α≤0.025) in body weight change (2b). FPG, PPG, IG dose, composite outcomes, AEs, and hypoglycemia were assessed.", "key": {"[1]": {"details": "Safety population, PT ≥ 3% table"}}, "data": [{"substance": "Insulin Glulisine QD: insulin glulisine once daily, added to insulin glargine ± metformin (comparator arm)", "values": [{"measurement": "Patients with any TEAE leading to death", "setting": "Safety population", "result": "0 n (%)"}, {"measurement": "Patients with treatment emergent SAE: Accidental overdose", "setting": "Safety population", "result": "2 (0.7%) n (%)"}, {"measurement": "Patients with TEAE: Accidental overdose", "setting": "[1]", "result": "13 (4.3%) n (%)"}, {"measurement": "Patients with TEAE: Headache", "setting": "[1]", "result": "8 (2.7%) n (%)"}, {"measurement": "Patients with TEAE: Hypoglycaemia", "setting": "[1]", "result": "140 (46.5%) n (%)"}, {"measurement": "Patients with TEAE: Infections and infestations (SOC)", "setting": "[1]", "result": "70 (23.3%) n (%)"}, {"measurement": "Patients with TEAE: Influenza", "setting": "[1]", "result": "8 (2.7%) n (%)"}, {"measurement": "Patients with TEAE: Injury, poisoning and procedural complications (SOC)", "setting": "[1]", "result": "20 (6.6%) n (%)"}, {"measurement": "Patients with TEAE: Investigations (SOC)", "setting": "[1]", "result": "76 (25.2%) n (%)"}, {"measurement": "Patients with TEAE: Metabolism and nutrition disorders (SOC)", "setting": "[1]", "result": "143 (47.5%) n (%)"}, {"measurement": "Adjudicated by PSAC: Acute on chronic pancreatitis", "setting": "in vivo", "result": "0 n (%)"}, {"measurement": "Adjudicated by PSAC: Acute pancreatitis", "setting": "in vivo", "result": "0 n (%)"}, {"measurement": "Adjudicated by PSAC: Chronic pancreatitis", "setting": "in vivo", "result": "0 n (%)"}, {"measurement": "Adjudicated by PSAC: Unknown pancreatitis", "setting": "in vivo", "result": "0 n (%)"}, {"measurement": "Gastrointestinal AEs: Diarrhea", "setting": "in vivo", "result": "10 (3) n (%)"}, {"measurement": "Gastrointestinal AEs: Nausea", "setting": "in vivo", "result": "5 (2) n (%)"}, {"measurement": "Gastrointestinal AEs: Vomiting", "setting": "in vivo", "result": "5 (2) n (%)"}, {"measurement": "Patients with TEAE on the specific adverse event form for increased calcitonin (>=20 ng/L): Any", "setting": "in vivo", "result": "0 n (%)"}, {"measurement": "Patients with TEAE on the specific adverse event form for increased calcitonin (>=20 ng/L): Blood calcitonin increased", "setting": "in vivo", "result": "0 n (%)"}, {"measurement": "Patients with TEAE: Any class", "setting": "in vivo", "result": "222 (73.8%) n (%)"}, {"measurement": "Patients with TEAE: Blood glucose decreased", "setting": "in vivo", "result": "67 (22.3%) n (%)"}, {"measurement": "Patients with TEAE: Diarrhoea", "setting": "in vivo", "result": "10 (3.3%) n (%)"}, {"measurement": "Patients with TEAE: Gastrointestinal disorders (SOC)", "setting": "in vivo", "result": "26 (8.6%) n (%)"}, {"measurement": "Patients with TEAE: Nasopharyngitis", "setting": "in vivo", "result": "21 (7.0%) n (%)"}, {"measurement": "Patients with TEAE: Nausea", "setting": "in vivo", "result": "5 (1.7%) n (%)"}, {"measurement": "Patients with TEAE: Nervous system disorders (SOC)", "setting": "in vivo", "result": "22 (7.3%) n (%)"}, {"measurement": "Patients with TEAE: Upper respiratory tract infection", "setting": "in vivo", "result": "5 (1.7%) n (%)"}, {"measurement": "Patients with TEAE: Vomiting", "setting": "in vivo", "result": "5 (1.7%) n (%)"}, {"measurement": "Patients with any TEAE", "setting": "in vivo", "result": "222 (73.8%) n (%)"}, {"measurement": "Patients with any TEAE leading to permanent treatment discontinuation", "setting": "in vivo", "result": "2 (0.7%) n (%)"}, {"measurement": "Patients with any treatment emergent SAE", "setting": "in vivo", "result": "11 (3.7%) n (%)"}, {"measurement": "Patients with events adjudicated as allergic reaction by ARAC: All, Any category, Any event", "setting": "in vivo", "result": "0 n (%)"}, {"measurement": "Patients with events adjudicated as allergic reaction by ARAC: OTHER ALLERGIC REACTION, Rhinitis allergic", "setting": "in vivo", "result": "0 n (%)"}, {"measurement": "Patients with events adjudicated as allergic reaction by ARAC: Possibly Related to IMP, Any event", "setting": "in vivo", "result": "0 n (%)"}, {"measurement": "Patients with events adjudicated as allergic reaction by ARAC: URTICARIA (HIVES), Urticaria", "setting": "in vivo", "result": "0 n (%)"}, {"measurement": "Patients with treatment emergent SAE: Abdominal pain", "setting": "in vivo", "result": "0 n (%)"}, {"measurement": "Patients with treatment emergent SAE: Angina pectoris", "setting": "in vivo", "result": "0 n (%)"}, {"measurement": "Patients with treatment emergent SAE: Angina unstable", "setting": "in vivo", "result": "1 (0.3%) n (%)"}, {"measurement": "Patients with treatment emergent SAE: Ankle fracture", "setting": "in vivo", "result": "1 (0.3%) n (%)"}, {"measurement": "Patients with treatment emergent SAE: Any class", "setting": "in vivo", "result": "11 (3.7%) n (%)"}, {"measurement": "Patients with treatment emergent SAE: Atrial fibrillation", "setting": "in vivo", "result": "1 (0.3%) n (%)"}, {"measurement": "Patients with treatment emergent SAE: Atrioventricular block complete", "setting": "in vivo", "result": "0 n (%)"}, {"measurement": "Patients with treatment emergent SAE: Basal cell carcinoma", "setting": "in vivo", "result": "0 n (%)"}, {"measurement": "Patients with treatment emergent SAE: Cardiac disorders (SOC)", "setting": "in vivo", "result": "3 (1.0%) n (%)"}, {"measurement": "Patients with treatment emergent SAE: Cardiac failure chronic", "setting": "in vivo", "result": "0 n (%)"}, {"measurement": "Patients with treatment emergent SAE: Cardiac failure congestive", "setting": "in vivo", "result": "0 n (%)"}, {"measurement": "Patients with treatment emergent SAE: Cellulitis", "setting": "in vivo", "result": "1 (0.3%) n (%)"}, {"measurement": "Patients with treatment emergent SAE: Cerebrovascular accident", "setting": "in vivo", "result": "0 n (%)"}, {"measurement": "Patients with treatment emergent SAE: Decreased appetite", "setting": "in vivo", "result": "0 n (%)"}, {"measurement": "Patients with treatment emergent SAE: Dehydration", "setting": "in vivo", "result": "1 (0.3%) n (%)"}, {"measurement": "Patients with treatment emergent SAE: Diabetic bullosis", "setting": "in vivo", "result": "0 n (%)"}, {"measurement": "Patients with treatment emergent SAE: Epigastric discomfort", "setting": "in vivo", "result": "0 n (%)"}, {"measurement": "Patients with treatment emergent SAE: Erysipelas", "setting": "in vivo", "result": "0 n (%)"}, {"measurement": "Patients with treatment emergent SAE: Gastric ulcer haemorrhage", "setting": "in vivo", "result": "0 n (%)"}, {"measurement": "Patients with treatment emergent SAE: Gastrointestinal disorders (SOC)", "setting": "in vivo", "result": "0 n (%)"}, {"measurement": "Patients with treatment emergent SAE: Hepatic mass", "setting": "in vivo", "result": "0 n (%)"}, {"measurement": "Patients with treatment emergent SAE: Hepatobiliary disorders (SOC)", "setting": "in vivo", "result": "0 n (%)"}, {"measurement": "Patients with treatment emergent SAE: Hypertension", "setting": "in vivo", "result": "0 n (%)"}, {"measurement": "Patients with treatment emergent SAE: Hypoglycaemia", "setting": "in vivo", "result": "1 (0.3%) n (%)"}, {"measurement": "Patients with treatment emergent SAE: Hypoglycaemic unconsciousness", "setting": "in vivo", "result": "2 (0.7%) n (%)"}, {"measurement": "Patients with treatment emergent SAE: Incisional hernia", "setting": "in vivo", "result": "1 (0.3%) n (%)"}, {"measurement": "Patients with treatment emergent SAE: Infections and infestations (SOC)", "setting": "in vivo", "result": "1 (0.3%) n (%)"}, {"measurement": "Patients with treatment emergent SAE: Injury, poisoning and procedural complications (SOC)", "setting": "in vivo", "result": "4 (1.3%) n (%)"}, {"measurement": "Patients with treatment emergent SAE: Invasive ductal breast carcinoma", "setting": "in vivo", "result": "0 n (%)"}, {"measurement": "Patients with treatment emergent SAE: Metabolism and nutrition disorders (SOC)", "setting": "in vivo", "result": "2 (0.7%) n (%)"}, {"measurement": "Patients with treatment emergent SAE: Myocardial infarction", "setting": "in vivo", "result": "1 (0.3%) n (%)"}, {"measurement": "Patients with treatment emergent SAE: Myocardial ischaemia", "setting": "in vivo", "result": "0 n (%)"}, {"measurement": "Patients with treatment emergent SAE: Neoplasm malignant", "setting": "in vivo", "result": "0 n (%)"}, {"measurement": "Patients with treatment emergent SAE: Neoplasms benign, malignant and unspecified (incl cysts and polyps) (SOC)", "setting": "in vivo", "result": "0 n (%)"}, {"measurement": "Patients with treatment emergent SAE: Nervous system disorders (SOC)", "setting": "in vivo", "result": "3 (1.0%) n (%)"}, {"measurement": "Patients with treatment emergent SAE: Neuritis cranial", "setting": "in vivo", "result": "1 (0.3%) n (%)"}, {"measurement": "Patients with treatment emergent SAE: Pancreatic carcinoma metastatic", "setting": "in vivo", "result": "0 n (%)"}]}]}
